Test results reported in the DeepSol protein solubility set.

Assay: soluble on expression in E. coli; label from the status in PepcDB or PDB records

## MRITDVRTAVVEANYDWTFVRIYTDEGLTGLGESFLAPGLTGIIRDLKPLLVGQDPLDVDRLFSRMRWAASGAGSVAGLVYNAISGIEAALWDLAGKHYGVPVFRLLGGRHRDRVRVYADCHAGEALEALSSVMIPRRPRWLSPAGAPPPAGDPVHGRAFGLEEPGEAFTPEMYAARAREVAAMGFTALKFDLDVPNPHTLDPHSGTLTHAEIRHMVSLVEAVREAVGDGVDIAFDLHWRYNVSDAVRLACELEPYGLMWLEDPVPPENVEALRRVTRSTRTPIASGENLYLRHGFREALERGALDIAAPDLQKCGGLLEGRRIADMADAHYVAVAPHCIASPIGTVAAAHVAAAVPNFLALEWHGMSVPFWEEMAAGFDGPVIRDGYIEVPEAPGLGVELNEEVARRYAREGEPFF
  soluble on expression in E. coli: soluble

## MGSDKIHHHHHHMLYNTDFLSRLTQGVKYLSSAWGLSSEAKLTLLTISENATFRIADENSGRNLIVRVHRPDYHTEAEILSELAWIDALRQDGVVVTPRPISANDGSLLQIFSDGETMRHAVAFEYMAGKEPDAESDLVHWYRTLGEINAKLHAHSRRWTRPENFIRKTWNFNRILGNGAYWGDWRDALGLKPDGKSVLERTHALLETQTSAYGYGEERFGLVHCDMRAANLLVDGDRLGVIDFDDCGLSWFAYDFAAAISFMEHEPFIPDLMAAWLEGYRRVAPLDAQHEAALPMFIMLRRMQLTAWIASHAETPTAQSMGTAYTDGTVALAECYLAEHR
  soluble on expression in E. coli: not soluble

## RELIRHGAEVHAVMSEAATKIIHPYAMEFATGNPVITEITGFIEHVELAGEHENKADLILVCPATANTISKIACGIDDTPVTTVVTTAFPHIPIMIAPAMHETMYRHPIVRENIERLKKLGVEFIGPRIEEGKAKVASIDEIVYRVIKKLHKKTLEGKRVL
  soluble on expression in E. coli: not soluble

## SLIKNGELKPGDKLDSVQALAESFQVSRSAVREALSALKAMGLVEMKQGEGTYLKEFELNQISQPLSAALLMKKEDVKQLLEVRKLLEIGVASLAAEKRTEADLERIQDALKEMGSIEADGELGEKADFAFHLALADASQNELLKHLMNHVSSLLLETMRETRKIWLFSKKTSVQRLYEEHERIYNAVAAGNGAQAEAAMLAHLTNVEDVLSGYFEENVQ
  soluble on expression in E. coli: soluble

## MSKILGDGHVRKTVDLPDSALRLNYEKKYYEPENGDHLIFSAQLQNGRYSALTAIKPTDLLQVYGSLSYLDEQLKFGHVSIHGRTAKVFVPFSTRTTNGACWYGQGAYIDKPYLIYIFRQEEAHGCKFVAWAIYDDTRKTTSVPPTPTDIQNTSHMKKLGPPTAVQRQSDHQSVEFVQAQSGVIYDISDNYVISVTSPTCQNVEFAPTLYESWMRPGRFITFDGRRVSDVKTSKLMGSNPEDMGSIYPIRKLTPLTITISAIMNKVSHGKAGWAWNDHVGRIYIPWNSTDRYMQASKPLPFTPVHLEIAYNGKHDDIPWVACGSSLVEEQEYDQIVDENSRMLKTEDNWKIQSVVDGPENPSIFLAKFDEKGLKRTAFAKVIDLNSGNIPPTGTLVRITYYAQERHGRHAMRCVLVTTMEKVERFPKVHSIINGSGEKHFPMMYEQPIPKKQVIPPTPVQRVQAAPPPAKNCWNLKNLGSPAAQPSVQDFPTVTGDEDDNIFVEETNTALPPPGFVPPGLVAPPGLPPPPGLPAVPLSTDLAYDFKMTSSIPMTNGLGHLRLGSVWSGTPVEAKQEEPLHYFQQQDNFLGSSFGPISSTFSADNFFTELTASISQPSTSSVVNSGPISDLRNTQSEASSPGLKSDGNEPVEETNCWSSLEAATNGNNPFNSSFSYGFPHMDLPIYQKMMPNANDILKPMPLVEEELKPATSATHSEADSCTCGTEQLIWDLWQNPHFIAAFAASDPETFKRVDAKRKLFSLSNHR
  soluble on expression in E. coli: not soluble

## MSLAQFSVNAQRFDPYKNFKFRIKWDGRYVAGVSKVSALKRTTEVVEHREGGDASNVRKSPGRTKYEPITMERGVTHDTEFEKWANKVWNYGSGMGAEVSLKDFRKDIIIEVYNEAGQLAIAYKVYRCWVSEYQALPELDANANAVAIQSMKLENEGWERDYDIGEPDEPTFTEPQEGHHHHHH
  soluble on expression in E. coli: soluble

## MRQWTATHMAKLARKASIAVGKKGTDLPGQIARRVDHNILRKLAKQVDDIVFISGTNGKTTTSNLIGHTLKKNQINIIHNNEGANMAAGITSAFIMQSSKNTNIAIIEIDEGSIPRVLNEVTPSMMVFTNFFRDQMDRFGEIDIMVDNIAKSISNKGIKLLLNADDPFVSRLKIASHSIVYYGMKKFAHDFEQSTMNESKYCPNCGRLLQYDYIHYNQIGHYHCECGFKREEPTYEVSSFDASPFLKMIINQSEFNMKIAGDFNSYNAIAAYTVLRELGLNDDAIRKGFETYTSDNGRMQYFSKNKKEAMINLAKNPAGMNASLSVGEQIDDKKIYVISLNDNAADGRDISWIYDADFEKLATQDIEAIIVSGTRAEELQLRLKLAEVEVPIKVEKDIYKATALTMKYSSFTVAIPNYTSLTPMLEQLNRSFEGGQS
  soluble on expression in E. coli: not soluble

## DPSVVLQMAEGPATYEQAPAGAPPANDPQARFVAKVLGETEDTWGAIFTQSLNRNYVPPKLVLFRGATPTACGTGQAAMGPFYCPGDSKVYIDLGFFDEMERRLNAPGDFAQAYVIAHEVGHHVQHLLGVSEQVDRLRQRNPAQANALSVRMELQADCFAGLWARRADQARNILESGDIEEGLNAASAIGDDTLQKKSQGYVVPDAFTHGSSAQRVRWFKRGLESGDLRQCDTF
  soluble on expression in E. coli: not soluble

## GPGSMLRKVTSPYKVSIRRTAASVTAADSKKAILRLIRFDPETNKQRVESYEYDKHHDYMVLDLITAVKAHQDPTLAFRASCCEGVCGSCAMNINGVNSLACITFSQQVTTVGPLPNFPVIKDFVVDLRHFFRQYAYIRPFVRNVNLDRSRLDNIVERYKTITKVIHGVPSDDEAQLAQLESKSGAQTDVMALLQLLDAVCESGNVTHLIRTLEALQERGMQLDQGKVKALIEETLQNYKKRKLGA
  soluble on expression in E. coli: not soluble

## MGSDKIHHHHHHVSPHSPVQLSLPVYLPDDETFNSYYPAAGNDELILSLQASAEGRANKAVYLWGPVKAGRTHLMHATCARANELNRSSFYLPLGIHASISTELLEGLEQLDLVCIDDVDAIAGHPLWEEALFDLYNRVAEHKRCALVVSASATASDAGFALPDLVSRMQWGLTYQLQPMADEEKLAALQRRAAMRGLQLPEDVGRFLLNRLARDLRTLFDVLDRLDKASLVHQRKLTIPFVKEMLRL
  soluble on expression in E. coli: not soluble

## MGSDKIHHHHHHMQNHVISLASAAERRAHITDTFGVRGIPFQFFDALMPSERLEQAMAELVPGLSAHPYLSGVEKACFMSHAVLWKQALDEGLPYIAVFEDDVLLGEGAEKFLAEDAWLQERFDPDSAFIVRLETMFMHVLTSPSGVADYCGRAFPLLESEHWGTAGYIISRKAMWFFLDRFAALPSEGLHPVDWMMFGNPDDRERMPVCQLNPALCAQELHYAKFHDQNSALGSLIEHDRCLNSKQQRRDSPANTFKHRLIRALTKISREREKRRQRREQLIGKIIVPFQ
  soluble on expression in E. coli: not soluble

## MGSDKIHHHHHHMKHGGYPWKNGKPALDVKDFSVNLNPMGVPKFIEELINEAVKLKVYAYYPPQNLREIKGIIAEIYGVNEDLVGVFNGASEVISILDENFTVPQPNYSEYKFHSYYFAEEHEDEFVFELNPGRILTSNPNNPTGSLIKLDEIEEFLINEKNELILDESFIDISLAESATKLVNEFNNLTIINSFTKSLAIPGLRFGFSIGHKSKELEKRVPIWRINSITYYVISNLNPKEVRSFFVNSKIKVKEIYDKVDGVKKLFKMYKSYAPFFLVEFKIPTSLINDELIRRCKCYIRDASNFLGLRNTHARIALKNEVIELINNINEIISEKES
  soluble on expression in E. coli: not soluble

## MLSKSLALGRRLTKISSSVKSISSITFKTVDGKPRDALTIHNVDFVIDPDEKMVDEYMKVYGNQRFNFKRNDIDIWRKSFKDSYSLWLVCLKGTNKIVQMSHVLNFPPLLSHNDILHQYHGFFWVDPDYRGKDSMAIMDYIEKHRARNQSDNDAGTFLTTAVTMWTKMHGHADYKHIMYVSYYKPDEMQIPEDLNLDGIFLKNATEVPDMDIVKYDNTVFPYERSKYMLNLLRDPEGFGKVAYDNNGKVIGFGNVIIYPSGECVLTPLYADDSKVAQAIFKSILKEIPLNDKKLLRFQIRSIDQCEGGFEWIQPFVKNPIRKEIMGHMAGSSHPPTVNYKKTYANTPYTTCVI
  soluble on expression in E. coli: not soluble

## MGHHHHHHSHMGNDKRSQIFTLSRYAGILRRCLKENAMSAQKPGLHPRNRHHSRYDLATLCQVNPELRQFLTLTPAGEQSVDFANPLAVKALNKALLAHFYAVANWDIPDGFLCPPVPGRADYIHHLADLLAEASGTIPANASILDIGVGANCIYPLIGVHEYGWRFTGSETSSQALSSAQAIISSNPGLNRAIRLRRQKESGAIFNGIIHKNEQYDATLCNPPFHDSAAAARAGSERKRRNLGLNKDDALNFGGQQQELWCEGGEVTFIKKMIEESKGFAKQVMWFTSLVSRGENLPPLYRALTDVGAVKVVKKEMAQGQKQSRFIAWTFMNDEQRRRFVNRQR
  soluble on expression in E. coli: soluble

## MGSDKIHHHHHHMKILITGANGQLGREIQKQLKGKNVEVIPTDVQDLDITNVLAVNKFFNEKKPNVVINCAAHTAVDKCEEQYDLAYKINAIGPKNLAAAAYSVGAEIVQISTDYVFDGEAKEPITEFDEVNPQSAYGKTKLEGENFVKALNPKYYIVRTAWLYGDGNNFVKTMINLGKTHDELKVVHDQVGTPTSTVDLARVVLKVIDEKNYGTFHCTCKGICSWYDFAVEIFRLTGIDVKVTPCTTEEFPRPAKRPKYSVLRNYMLELTTGDITREWKESLKEYIDLLQM
  soluble on expression in E. coli: soluble

## MSLNGLNSECHFYQTDGDIVVRCAQINDAERLSQYFVDNRSHLIEWEPRREAEFFTESGWLQRLIKLNELHKMKLGYYLLILDAQNDAMLGTISFSNIIRFPFHACNVGYSLAYEAQGKGIMTRALTMACQYMFSEHNMHRIMASYIPHNKRSENVLKRVGFVLEGHAKDYLLINGKWEDHNLTSLINPNWKEEGHHHHHH
  soluble on expression in E. coli: soluble

## MSAYLDWLADMGIDGAHPGGFELTKQILRKLKIDRSTSVLDVGCGTGQTAAYIAEQYGANVTAIDIHPTMIAKAKQRFAAKAVSVRLHRASVEALPFPAGTFDLALSESVLAFVSLPNALAEIRRVLKNDGLFVGIEACHERLTAAEQKQIAAFYGFRQLMTSAEWKEVLEQSGFGCRQFSYAAAAEAPSLGAPIVIALPPTPEMASMWQMHQQLTAQFGDRLGYCVFCCEP
  soluble on expression in E. coli: not soluble

## TDVATVVSQAKAQMKEAYYTYSHTVTETGQFPDIKDVYAAYNKAKQAYANAVAVVNKAGGAKKDAYLADLQAIYETYVFKANPKSGEARVATYIDAYNYATKLDKMRQELKAAVDAKDLKKAEELYHKISYELKTRTVILDRVYGQSTRELLRSTFKADAQALRDRLIYDITVAMKAREAQDAVKAGNLDKAKAALDQVNQYVSKVTDAFKAELQKAAQDAKAAYEAALTPKVESVSAIDSTSFKVTFTKPVDKATAIPKNFSITLKGTETKLYPKSVEVSESGLTATVTLYDTLVDGKTYTVVTSGLKDTAGKEFETSTNEFTYNKPVPASITFNFNKLPEDSAVDLTKYVTVKDAAGNVIKSGFELEFTSSEKLTQGKFINTTGKKSVIVNATVKGTNVTTGNVILAVED
  soluble on expression in E. coli: soluble

## MNLPLEYHPFPAILPKSATVAMLGTFPPTSEKRCMEFHYPNFQNDMWRIMGLLFYKNLDHFRVDQEKRFDPVRIEAFLREKGIALCSSAQTAIRLKGNASDKDLKIIDAIDMQALLTELPQLKWLFTTGGLATETLLSLLPEKSKLPKTNEWINYPYTTDRTLYLYRLPSTSRAYPLSLAKKVEAYRQFFVRVGLEHHHHHH
  soluble on expression in E. coli: not soluble

## MGSDKIHHHHHHENLYFQGMLYHLVMLEPEGEGAMDRIMEAMAILDGLAPELPGLTEFRHGPNRDFEQKSERYPYGFLCTFTDKAALDAYAVHPTHQRAGGMLVASCRNGADGILVVDLEV
  soluble on expression in E. coli: soluble
